Measured values from PMC4167889 (Molecular cell, 2009).

Legend:
[1] = target: recombinant wild-type p105, His-tagged (E. coli) (UniProt P25799); assay: SEC
AUC = target: the molecule itself; assay: AUC

For “p50, the 50 kD N-terminal product of recombinant p105 (E. coli) (domain or fragment)”, the stoichiometry N [1] was 1.

B1: recombinant wild-type p105, His-tagged (E. coli) (natural protein, UniProt P25799-1 1-971, looked up)
chain: MADDDPYGTGQMFHLNTALTHSIFNAELYSPEIPLSTDGPYLQILEQPKQRGFRFRYVCEGPSHGGLPGASSEKNKKSYPQVKICNYVGPAKVIVQLVTNGKNIHLHAHSLVGKHCEDGVCTVTAGPKDMVVGFANLGILHVTKKKVFETLEARMTEACIRGYNPGLLVHSDLAYLQAEGGGDRQLTDREKEIIRQAAVQQTKEMDLSVVRLMFTAFLPDSTGSFTRRLEPVVSDAIYDSKAPNASNLKIVRMDRTAGCVTGGEEIYLLCDKVQKDDIQIRFYEEEENGGVWEGFGDFSPTDVHRQFAIVFKTPKYKDVNITKPASVFVQLRRKSDLETSEPKPFLYYPEIKDKEEVQRKRQKLMPNFSDSFGGGSGAGAGGGGMFGSGGGGGSTGSPGPGYGYSNYGFPPYGGITFHPGVTKSNAGVTHGTINTKFKNGPKDCAKSDDEESLTLPEKETEGEGPSLPMACTKTEPIALASTMEDKEQDMGFQDNLFLEKALQLARRHANALFDYAVTGDVKMLLAVQRHLTAVQDENGDSVLHLAIIHLHAQLVRDLLEVTSGLISDDIINMRNDLYQTPLHLAVITKQEDVVEDLLRVGADLSLLDRWGNSVLHLAAKEGHDRILSILLKSRKAAPLIDHPNGEGLNAIHIAVMSNSLPCLLLLVAAGAEVNAQEQKSGRTALHLAVEYDNISLAGCLLLEGDAHVDSTTYDGTTPLHIAAGRGSTRLAALLKAAGADPLVENFEPLYDLDDSWEKAGEDEGVVPGTTPLDMAANWQVFDILNGKPYEPVFTSDDILPQGDMKQLTEDTRLQLCKLLEIPDPDKNWATLAQKLGLGILNNAFRLSPAPSKTLMDNYEVSGGTIKELMEALQQMGYTEAIEVIQAAFRTPATTASSPVTTAQVHCLPLSSSSTRQHIDELRDSDSVCDSGVETSFRKLSFTESLTGDSPLLSLNKMPHGYGQEGPIEGKI
In the case of B1, the “stoichiometry N” value (AUC) is reported as 2.
